What was measured:
[1] = target: T1, GST-HP1γ (human, UniProt Q13185 1-183); experiment: pull-down; GST fusion proteins bound to agarose beads incubated with purified histones, recombinant B10-tagged H3 constructs or purified Brg1-flag; ELB buffer (50mM HEPES pH 7, 250mM NaCl, 1mM EDTA, 0.1% NP40); elution with 20mM glutathione; western blot (anti-H3, anti-B10 or anti-Brg1); conditions: both partners purified
T1 construct: HP1γ

[2] = target: T2, GST-HP1α (human, UniProt P45973 1-191); experiment: as above; conditions: both partners purified
T2 construct: HP1α, human; also called HP1α-derived GST-fusion protein
T2 sequence (P45973 whole entry, the tested form may be a part): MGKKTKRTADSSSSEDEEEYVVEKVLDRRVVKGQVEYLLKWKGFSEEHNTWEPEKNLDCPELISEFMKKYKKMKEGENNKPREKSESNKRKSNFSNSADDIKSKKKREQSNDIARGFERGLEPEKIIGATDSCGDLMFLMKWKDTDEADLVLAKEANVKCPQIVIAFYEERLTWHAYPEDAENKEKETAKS

T1 sequence (Q13185 whole entry, the tested form may be a part): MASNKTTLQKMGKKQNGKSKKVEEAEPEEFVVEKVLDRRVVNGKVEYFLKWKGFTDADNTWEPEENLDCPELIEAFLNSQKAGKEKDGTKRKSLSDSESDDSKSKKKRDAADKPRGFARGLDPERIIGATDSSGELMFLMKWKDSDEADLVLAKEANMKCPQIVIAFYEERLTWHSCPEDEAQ

Row | binding result [1] | fold excess of HP1α over Brg1 needed for similar binding [2] | Binder
1 | binds | – | GTVALREIRRYQKSTELLIRKLP (domain or fragment, UniProt P68431 45-67, looked up, histone H3 aa 44-66, recombinant; also called histone H3 aa 44 to 66) [rH3(44–66), B10/6xHIS-tagged]
2 | binds | ~50 fold | rH3(35–66), B10/6xHIS-tagged (domain or fragment, histone H3 aa 35-66 (V35 to P66), recombinant; also called Shadock; histone H3 aa 35 to 66) not shown
3 | binds | – | rH3(35–66)V46A, B10/6xHIS-tagged (domain or fragment, histone H3 aa 35-66 with the valine of the PXXVXL motif mutated; also called mutant B10-tagged fragment of histone H3 (aa 35 to 66)) not shown

Reference: paper PMC2782133, “Interaction of HP1 and Brg1/Brm with the Globular Domain of Histone H3 Is Required for HP1-Mediated Repression” (PLoS Genetics, 2009)
